Experiments:
Assay in all cases: peptide or protein array
[1] = target: casein kinase 1ε (CK1ε) on the ProtoArray Human Protein Microarray (human, UniProt P49674 1-416)
[2] = target: glycogen synthase kinase 3β (GSK3β) on the ProtoArray Human Protein Microarray (human, UniProt P49841 1-420)
[3] = target: carbonic anhydrase 1 on the ProtoArray Human Protein Microarray (human, UniProt P00915 1-261)
[4] = target: mitogen-activated protein kinase kinase 2 (MEK2) on the ProtoArray Human Protein Microarray (human, UniProt P36507 1-400)
[5] = target: T1, chromosome 7 open reading frame 50 on the ProtoArray Human Protein Microarray (human, UniProt Q9BRJ6 1-194)
T1 sequence (looked up): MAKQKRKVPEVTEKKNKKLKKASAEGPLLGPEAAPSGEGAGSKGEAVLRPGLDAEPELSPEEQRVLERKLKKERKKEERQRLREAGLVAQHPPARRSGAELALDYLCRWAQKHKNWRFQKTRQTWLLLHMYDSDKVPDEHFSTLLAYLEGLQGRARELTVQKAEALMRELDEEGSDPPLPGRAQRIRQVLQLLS

Sequence of glycogen synthase kinase 3β (GSK3β) on the ProtoArray Human Protein Microarray (P49841 whole entry): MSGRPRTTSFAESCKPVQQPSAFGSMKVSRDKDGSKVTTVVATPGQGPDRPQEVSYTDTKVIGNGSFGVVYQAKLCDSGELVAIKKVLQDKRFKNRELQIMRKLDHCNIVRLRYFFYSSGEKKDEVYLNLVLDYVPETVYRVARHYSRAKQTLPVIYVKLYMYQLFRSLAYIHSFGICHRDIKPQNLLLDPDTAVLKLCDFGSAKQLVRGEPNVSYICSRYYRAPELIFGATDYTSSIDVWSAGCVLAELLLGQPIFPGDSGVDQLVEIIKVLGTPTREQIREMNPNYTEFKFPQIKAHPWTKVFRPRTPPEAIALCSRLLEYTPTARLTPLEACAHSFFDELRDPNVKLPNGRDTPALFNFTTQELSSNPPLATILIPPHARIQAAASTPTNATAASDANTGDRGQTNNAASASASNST
Sequence of casein kinase 1ε (CK1ε) on the ProtoArray Human Protein Microarray (P49674 whole entry): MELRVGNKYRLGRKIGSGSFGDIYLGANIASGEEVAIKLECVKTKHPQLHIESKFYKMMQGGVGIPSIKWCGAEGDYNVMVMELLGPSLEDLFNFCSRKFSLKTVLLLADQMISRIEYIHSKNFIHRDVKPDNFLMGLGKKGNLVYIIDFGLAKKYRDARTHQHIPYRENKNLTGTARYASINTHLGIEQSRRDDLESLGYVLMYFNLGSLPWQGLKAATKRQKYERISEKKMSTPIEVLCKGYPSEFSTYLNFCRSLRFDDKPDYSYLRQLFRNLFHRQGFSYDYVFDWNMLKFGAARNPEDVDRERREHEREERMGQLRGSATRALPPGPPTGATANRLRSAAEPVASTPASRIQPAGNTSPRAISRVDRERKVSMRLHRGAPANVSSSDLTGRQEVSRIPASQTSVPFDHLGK
Sequence of carbonic anhydrase 1 on the ProtoArray Human Protein Microarray (P00915 whole entry): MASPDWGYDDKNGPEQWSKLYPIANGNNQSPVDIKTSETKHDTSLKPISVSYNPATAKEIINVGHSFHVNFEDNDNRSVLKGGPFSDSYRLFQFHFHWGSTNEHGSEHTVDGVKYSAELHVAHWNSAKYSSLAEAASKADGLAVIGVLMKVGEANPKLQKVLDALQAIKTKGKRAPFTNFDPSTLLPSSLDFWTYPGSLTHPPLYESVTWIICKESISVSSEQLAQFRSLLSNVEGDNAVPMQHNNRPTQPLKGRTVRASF

binding result [1]: binds
binding result [2]: binds
binding result [3]: binds
binding result [4]: binds
binding result [5]: binds
B1: V5-SRGY (RBMY amino acid residues 227–374, 4 repeated SRGY box domains) (domain or fragment, human, UniProt P0DJD3-1 227-374, looked up)
chain: ETRDYAPPSRGYAYRDNGHSNRDEHSSRGYRNHRSSRETRDYAPPSRGHAYRDYGHSRRDESYSRGYRNRRSSRETREYAPPSRGHGYRDYGHSRRHESYSRGYRNHPSSRETRDYAPPHRDYAYRDYGHSSWDEHSSRGYSYHDGYG

Source: article PMC9672922 (Cellular and Molecular Gastroenterology and Hepatology, 2022)
